The nature of the data set: yeast display, Sf9 membrane polyspecificity reagent, FACS + sequencing; frameworks hold sequencing errors. In outline:
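A nanobody's polyreactivity label depends on the gate it was sorted from. Yeast display cells were stained with 10% biotinylated, detergent-solubilized Sf9 membrane reagent for 1 hour at 4 °C, enriched on streptavidin microbeads and sorted by FACS. The low and high (top ~1%) gates were set on anti-HA fluorescence for expression and streptavidin fluorescence for reagent binding.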
With “QVQLVDSGGGLFQAGGSLRLSCAASGRTFVGYSMGWYRQAPGKEMEVVATITNDDITYADSVKGRFTISRDNAMNTVYLQMNSLNPEETAVYYCNTSYSYGTAYEQYRYKALYDYWGHGTQVTVSS”, the “polyreactivity (PSR sort gate)” value is “low polyreactivity”.

Consider “QVQLVDSGGGLGQVGGSRRVSCAASGRTFWWYPMGWYRQSPGKERELVAAISRGSTNYADSVKGRFAISRDNAKNTVYLQMNSQKPEDTAVYYCAAYVVWLYGYDYGGQGTQVTVSS”, for which the “polyreactivity (PSR sort gate)” value was “low polyreactivity”.

Take “QVQLVDSGGGLLQAGASLRLSCAASGITFYINAMGWYRQPPGKERALVAVIDSRGSSTFYADSVKGRFTISRHNAKNSVYLQMNSLKPEYTAVYYCAAEPDTYWYTYDYWGQRTQVTVSS”: the “polyreactivity (PSR sort gate)” value is listed as “low polyreactivity”.

In the case of “QVQLVDSGGGLLQAGGILSLSCAASGSIFPYYAMGWYRQAPGKERELVAVITTVGGSTYYADSVKGRFTISRDNAKYTVYLQMNSLKPEDTAVYYCADEEDYIYFYFSMDYWGQGTQVTVSS”, the “polyreactivity (PSR sort gate)” value was “low polyreactivity”.

For “QVQLVDSGGGLVQAGGILRLSCAASGFIFKKNAMGWYRQAHGKEREFVAAITSSGGSTYYADSVKGRFTISRDNAKNTVYLQMNSLKPEDTAVYFCARGTSWWRSRSITFTYDYWGQGTQVTVSS”, the “polyreactivity (PSR sort gate)” value is “high polyreactivity”.

For “QVQLVDSGGGLVQAGGILRLSCAASGRTFTYYTMGWYRQAPGKESEMVAAITWSGGRTYYADSVKGRFTISRDNAKNTVYLQMNILKPEDTAVYYCAAYEIYYEFDSWGQGTQVTVSS”, the “polyreactivity (PSR sort gate)” value is on record as “low polyreactivity”.

Take “QVQLVDSGGGLVQAGGILRLSCAASGSTFRRYSMGWYRHAPGKQRELVAAISGRGGSTSYADSVKGRFTISRDNAKNTVYLQINSLKPEDTAVYYCAADDKYFYPGNGYWGQGTQVTVSS”: the “polyreactivity (PSR sort gate)” value is “high polyreactivity”.

As to “QVQLVDSGGGLVQAGGILRLSCAASGSTFRYYAMGWYRQAPGKERELVAAITKNGGSTYYADSVKGRFTISRDNAKNTVYLQMNSLKPEDTAVYYCAVQFSYSGWYYVSYYYWGQGTQVTVSS”, the “polyreactivity (PSR sort gate)” value is on record as “high polyreactivity”.

For “QVQLVDSGGGLVQAGGRLRLSCAASGFTFPSNAMGWYRKAPGKERQLVASINQRGGSTYYADSVKGRFTISRDNAKNTVYLQMNSLKPEDTAVYYCAAGPTSRRWYDYWGQGTQVTVSS”, the “polyreactivity (PSR sort gate)” value is “high polyreactivity”.

For “QVQLVDSGGGLVQAGGRLRLSCAASGSIYAAYTMGRYRQAPGKERELVAAISVSTVSTYYADSVKGRFTISRDNAKNTVYLQMNSLKPDDTAVYYCNADATYSYPEKDEPDSWGQGTQVTVSS”, the “polyreactivity (PSR sort gate)” value is given as “low polyreactivity”.

On to “QVQLVDSGGGLVQAGGSHRLSCAASGLTFRKYPMGWYRQAPGKERELVATISRNGGSTYYADSVKGRFTISRDNAKNTVYFQMNSLKPEDTAVFYCAADYYNYDYAGYGYWGQVTQVTVSS”, for which the “polyreactivity (PSR sort gate)” value is on record as “high polyreactivity”.

Turning to “QVQLVDSGGGLVQAGGSLCLSCPASGGTSRVNAMGWYRQAPGKETELVARIRSGGSTYYADSVKGRFTISRDNAKNTVYFKMNRLKPEDTAVYHCAAVPRRTGQQQDMDYWGQGTQVTVSS”, the “polyreactivity (PSR sort gate)” value is reported as “high polyreactivity”.

Consider “QVQLVDSGGGLVQAGGSLLLSCAASGSTYKFYAMGWYRQAPGKERELVASITSSSGPTYYADSVKGRFTISRDNAKNTVYLQMKSLKPEDTAVYYCAKRPIRYYHLLRGNYWGQGTQVTVSS”, for which the “polyreactivity (PSR sort gate)” value is “low polyreactivity”.

Turning to “QVQLVDSGGGLVQAGGSLRESCAASGSTFYYNDMGWSRQAPGKDRELVAAIRTSGSTNYAESVKGRFTLSRDNAKNTVYLQMNSLKPEDTEVYYCNAVVRHWFPGWYGRGDDYWGQGTQVTVSS”, the “polyreactivity (PSR sort gate)” value is listed as “low polyreactivity”.

For “QVQLVDSGGGLVQAGGSLRLGCAASGRIFAGYGMGWYRQAPGKERELVATITSGGSTYYADSLKGRFTISRDNAKNTVYLQMNSLKPEDTAVYYCNRYFSEALLHGSSYNRYYYWGQGTQVSVSS”, the “polyreactivity (PSR sort gate)” value is recorded as “low polyreactivity”.

“QVQLVDSGGGLVQAGGSLRLICAASGRTFGTNALGWYRQAPGKEREFVAAIRWSDGSTYYADSVKGRFTISRDNAKNTVYLQMNSLKPEDTAVYYCAKEYYIVDVIHDYALYLYDYWGQGTQVTVSS”: the “polyreactivity (PSR sort gate)” value is reported as “low polyreactivity”.

Turning to “QVQLVDSGGGLVQAGGSLRLICAASGRTIWYYAMGWYRQAPGKERELLASITRSGGSTYADSVKGRFTISRDNAKNSVYLQMYSLKPEDTAVDYCAATRPRIPVYQNNYGYWGQGTQVTVSS”, the “polyreactivity (PSR sort gate)” value is given as “high polyreactivity”.

In the case of “QVQLVDSGGGLVQAGGSLRLICDASGFIFFAYAMGWYRQAPGKERELVAVITSGGGTNYADSVKGRFTFSRDNAKNTVYLQMTSLKPEDTAVYYCNADYFFASTEFYYWGQGTQVTVSS”, the “polyreactivity (PSR sort gate)” value is on record as “low polyreactivity”.

Turning to “QVQLVDSGGGLVQAGGSLRLIFAASGITQPYYAMGWYRQAPGKERELVAGISSRGGSTYYADSVKGRFTISRDNAKNTVYLQMNSLIPEDTAVYYCAAKVASTRLGPAYGYWGQGTQVTLSS”, the “polyreactivity (PSR sort gate)” value was “high polyreactivity”.

As to “QVQLVDSGGGLVQAGGSLRLRGAASGRIFFYYAMGWYRQAPGKERELLAAITYSVDSTYYADSVKGRFTISRDNAKNTVYLQMNSLKPEDTAVYYCAADDIHYVIHAYYSSGVDYWGQGTQVTVSS”, the “polyreactivity (PSR sort gate)” value is recorded as “low polyreactivity”.

For “QVQLVDSGGGLVQAGGSLRLSCAACGSTFVLYGMGWYRQAPGKQRELVADITGGGSSTYYADSVKGRFTISRDYAKNTVYLQMNSLKPEDTAVYYCNADYYPFYWIEPATPYLGFDYWGQGTQVTVSS”, the “polyreactivity (PSR sort gate)” value is given as “low polyreactivity”.

On to “QVQLVDSGGGLVQAGGSLRLSCAASGAIFDIYGMGWYRQAPGKERELVASISGGAGSTNYADSVKGRFTISRDNAKNTVYLQMNSLKPEDTAVYYCAAEVYVPDYFQHKFDVEYEYWGHGTQVTVSS”, for which the “polyreactivity (PSR sort gate)” value was “low polyreactivity”.

Turning to “QVQLVDSGGGLVQAGGSLRLSCAASGFIFAHYAMGWYRPAPGKESELVAAISSRGGSTYYADSVKGRFTISRDNAKNTVYLQMNSLKPEDTAVYYCAKARHRPARGYEYWGQGTQVTVSS”, the “polyreactivity (PSR sort gate)” value is on record as “high polyreactivity”.

As to “QVQLVDSGGGLVQAGGSLRLSCAASGFIFAPYAMGWYRQAPGKERELVAAISSSGGSTYYADSVKGRFTISRDNAKNTVYLQMNSLKPEDTAVYYCAVDYLTLTYEYYYWGQGTQVTVSS”, the “polyreactivity (PSR sort gate)” value is on record as “low polyreactivity”.

Turning to “QVQLVDSGGGLVQAGGSLRLSCAASGFIFPLYTMGWSRQAPGKERELVAAITGSGGSTYYADSVKGRFTISRDNEKNTVYLQMNSLKPEDSAVYYCAKDYTYGMDWGQGTQVTVSS”, the “polyreactivity (PSR sort gate)” value is given as “low polyreactivity”.

On to “QVQLVDSGGGLVQAGGSLRLSCAASGFIFRRNAMGWYRQAPGKERELVAAITGGGGSTYYADSVKGRFTISRDNAKNTVYLQMNSLKPEDTAVYYCNALPARRRWQVDYWGQGTQVTVSS”, for which the “polyreactivity (PSR sort gate)” value is recorded as “high polyreactivity”.

Regarding “QVQLVDSGGGLVQAGGSLRLSCAASGFIFRRYAMGWYRQAPGKERDLVAVIRSSGGSTYYADSVKGRFTISRDNAKNTVYLQMNSLKPEDTAVYYCAARSILGYRSYGYWGEGTQVTVSS”, the “polyreactivity (PSR sort gate)” value is recorded as “high polyreactivity”.

Consider “QVQLVDSGGGLVQAGGSLRLSCAASGFIFRYYAMGWNRQATGKERELVAAISWSTDNTYYADSVKGRFTILRDNAKNTVYLQMNSLKPEDTAVYYCAADEGWYGPKLDYWGQGTQVTVSS”, for which the “polyreactivity (PSR sort gate)” value is reported as “low polyreactivity”.

Regarding “QVQLVDSGGGLVQAGGSLRLSCAASGFTFRYYAMGWYRQAPGKERELVAAISSSGTRTYYADSVKGRFTISRDNAKTTVYLQMNSLKPEDTAVYYCNAVSPTSTVDYWGQGTQVTVSS”, the “polyreactivity (PSR sort gate)” value is given as “high polyreactivity”.

In the case of “QVQLVDSGGGLVQAGGSLRLSCAASGFTFTLNAMGWYRQAPGKERELVAGISSGGSTNYADSVKGRFTISRDNAKNTVYLQMNSLKPEDTAVYYCAADRGYVWRYDYWGEGTQVTVSS”, the “polyreactivity (PSR sort gate)” value is recorded as “low polyreactivity”.

As for “QVQLVDSGGGLVQAGGSLRLSCAASGFTFTQYAMAWYIQAPGKERELVASIRSGGSTKYADSVKGRFTISRDNAKNTVYLQMISLKPEDTAVYYCAKDRYHISFFYQMEFWGQGTQVTVSS”, the “polyreactivity (PSR sort gate)” value is “low polyreactivity”.

Turning to “QVQLVDSGGGLVQAGGSLRLSCAASGFTFVPYAMGWYRQAPGKERETNADSVKGRFTISRDNAKNTVYLQMNSLKPEDTAVYYCAAGGYGPYDYWGQGTQVTVSS”, the “polyreactivity (PSR sort gate)” value is listed as “low polyreactivity”.

“QVQLVDSGGGLVQAGGSLRLSCAASGFTFWRYVMGWYRQAPGKERELVAAISGRGSRTFYADSVKGRFTISRDNAKNTVYLQMNSLKPEDTAVYYCNAYPGTSGTLYVTPYDYWGQGSQVTVSS”: the “polyreactivity (PSR sort gate)” value is recorded as “high polyreactivity”.

Consider “QVQLVDSGGGLVQAGGSLRLSCAASGFTITRNVMGWYRQAHGKERELVAAITSGGNTNYADSVKGRFTISRDNAKNTVYLQMNSLKPEDTAVYYCATSYHRRYDYWGQGTQVTVSS”, for which the “polyreactivity (PSR sort gate)” value is “low polyreactivity”.

With “QVQLVDSGGGLVQAGGSLRLSCAASGGLFIVNDMGWYIQAPGKEMELVAAITSGGGKNYADSVKGRFTISRDNAKNTVYLQMNSLKPEVTAVYYCARDTYRQIVSNESYGFWGHGTQVTVSS”, the “polyreactivity (PSR sort gate)” value is listed as “low polyreactivity”.

Consider “QVQLVDSGGGLVQAGGSLRLSCAASGIIFAYNAMGWYRQAPGKERELVAAITSGTSTHYADSVKGRFTISRDNAKNSVYLHINSLNPEDTAVYYCNADYFFEFDYWGQGTQVTVSS”, for which the “polyreactivity (PSR sort gate)” value is “low polyreactivity”.

For the sequence “QVQLVDSGGGLVQAGGSLRLSCAASGIIFRTNAMGWYRQAPGKERELVAAIRWSDGSTYYADSVKGRFTISRDNAKNTVYLQMNSLKPEDTAVYYCNAASQYTFDCSFDDWGQGTQVTVSS”, the “polyreactivity (PSR sort gate)” value was “low polyreactivity”.

Take “QVQLVDSGGGLVQAGGSLRLSCAASGISFGVYAMGWYRQAPGKERELVAAISRRGASTYYADSVKGRFTISRDNAKTTVYLQMNILNPEDTAVYYCPAYLARRQYDYWGQGTKVTVSS”: the “polyreactivity (PSR sort gate)” value is listed as “high polyreactivity”.

Regarding “QVQLVDSGGGLVQAGGSLRLSCAASGITFGYYAMGWYRQAPGKERELVAAISFTGASTYYADSVKGRFTISRDNAKNTVYLQMYSLKPEDTAVYYCAADPYVPYHDFLSGFDYWGQGTQVTVSS”, the “polyreactivity (PSR sort gate)” value is given as “low polyreactivity”.

“QVQLVDSGGGLVQAGGSLRLSCAASGITFWWYAMGWSRPAPGKEREVVAAISQRGGTYYADSVKGRFTISRDKAKNTVFLQMKSLKPDDTAVDSCAAVVYSRYAPYSAQYDDWGQGTQVTVSS”: the “polyreactivity (PSR sort gate)” value was “high polyreactivity”.

Turning to “QVQLVDSGGGLVQAGGSLRLSCAASGITIPSYTMGWYRQGPGKERELVATIRNGGSTYYADSVKGRFTISRDNAKNTVYLQMNSLIPEDTAVYYCAAVPLWDYIFFYYLLYDYWGQGTQVTVSS”, the “polyreactivity (PSR sort gate)” value is given as “low polyreactivity”.

The values above are taken from the nanobody polyreactivity screen of Harvey et al. (2022).
